Data from patent US5037646A, “Processes for the treatment of vascular disease” (Genentech, Inc., priority 1990, dated 1991).
Where “and” joins values, the source holds several entries; their conditions need not be identical. Equal entries are not always repeated. Where two headings read alike, the source gives them in different places.

Tests used:
[1] = Pharmacokinetics of I-125 labeled t-PA, i.v. bolus in rabbits; format: in vivo, rabbit; parameters: B0 / t1/2b / A0 / AUMC × 10^- 6: unit not given here; settings: carrier 1 mg/kg cold rt-PA; for CL (clearance rate): natural t-PA
Protocol: Comparative pharmacokinetic studies were performed in rabbits. I-125 labeled test t-PA, either wild type or N44 variant, 5 uCi/kg with a specific activity of 5 to 10 uCi/ug, and carrier wild type t-PA, 1.0 mg/kg, were coinjected, serial blood samples were collected, plasma prepared and the TCA (trichloroacetic acid) precipitable counts were determined at each time point. TCA precipitation was used in order to remove any small metabolites which appear at later times due to degradation of t-PA by the liver. The plasma concentration time curve for rt-PA was fit to a biexponential equation C-Aexp(-alphaXt)+Bexp(-betaXt). The curve for the des (1-44) rt-PA was fit to a monoexponential equation C-Aexp(-alphaXt). The clearance (Cl) was calculated by the formula Cl-DOSE/AUC, where AUC is the area under the plasma concentration time curve. […]

[2] = system: plasminogen; assay: In vitro plasminogen activation, two-stage assay with plasmin specific substrate S-2251; format: biochemical
Protocol: The ability of t-PA to activate plasminogen can be measured in an in vitro assay by preincubating t-PA and plasminogen and then adding the plasmin specific substrate H-D-valyl-H-leucyl-H-lysine-p-nitronilide (S-2251). The maximum rate of this reaction is observed in the presence of fibrin(ogen) or fragments of fibrin(ogen) which act as stimulators of the reaction.
The plasmin specific substrate S-2251 was used in a two-stage assay to measure the ability of the sample to activate plasminogen. Fibrin clots were made by incubating the sample with 0.02 ml of a 20 mg/ml fibrinogen solution with 1U of thrombin in a total volume of 0.12 ml of 0.05M Tris-HCl, 0.12M NaCl, 0.01% Tween 80, pH 7.4 for 30 min. at 37' C. Alternatively, the thrombin could be omitted and fibrinogen used as the stimulator. Glu-plasminogen solution, 0.03 ml of a 2.1 mg/ml solution, was then added. After 10 min at 37' C., 0.35 ml of 2.86 mM S-2251 in 0.037M Tris, 0.86 NaCl, 0.007% Tween 80, pH 7.4) were added. This mixture was incubated for five minutes then the reaction was stopped by the addition of 0.1 ml of 50% glacial acetic acid. Absorbance at 405 nm was measured. The activity was expressed as the change in absorbance per nanogram per minute in the presence of substrate.
The stimulation is the ratio of the specific activity of the sample containing fibrin and the specific activity of the sample not containing fibrin.

[3] = rabbits; cited from earlier work
[4] = system: fibrin clot; assay: In vitro fibrin clot lysis assay with saturating plasminogen; format: biochemical; settings: t-PA = 1.0
Excerpt: In order to further compare the ability of des 1-44 t-PA to activate plasminogen in the presence of fibrin(ogen), it was compared to t-PA in an assay which measures the ability of t-PA and saturating plasminogen to lyse a fibrin clot.

[5] = monkeys; cited from earlier work
[6] = cited from earlier work
[7] = In vitro protease amidolytic assay with S-2288 substrate; format: biochemical; settings: S-2288, 23 nM protein, pH 7.4
Protocol: The activity of des (1-44) t-PA in a protease amidolytic assay was compared to that of natural t-PA using the S-2288 paranitroanilide chromogenic substrate (Helena Labs). The S-2288 paranitroanilide substrate provides a direct measurement of protease amidolytic activity. The kinetic constants for t-PA and des 1-44 t-PA were determined with the S-2288 substrate using an H-P diode array spectrophotometer (HP8451-A). Hydrolysis of the substrate was measured continuously at two substrate concentrations (1.0 mM and 0.1 mM) while the protein concentrations were held constant at 23 nM in a buffer composed of 0.05M Tris-HCl, 0.12M NaCl, 0.01% Tween 80, pH 7.4. Using the differential form of the Michaelis-Menten equation and a non-linear regression the Km and Vmax were calculated from the curves of the progress of the reaction.

[8] = individual rabbits #A, #C, #E, #G

## natural t-PA: human tissue plasminogen activator, amino acids 1-527, whether obtained from natural or recombinant sources
[1]; MEAN
  AUMC × 10^- 6: 601.493
  VDSS: 0.213336 L/kg
  t1/2b: 28.868
[1]; MEAN, biexponential fit
  A0: 275201
  B0: 30352.649
[1]; MEAN, unit from b248, listed as rT-PA
  t1/2a: 3.067 min
[1]; MEAN, unit from b248, listed as rt-PA
  t1/2a: about 3.1 minutes
[1]; MEAN, listed as rT-PA
  CL (clearance rate): 8.357 mL/min/kg
[1]; MEAN, listed as rt-PA
  CL (clearance rate): about 8.4 ml/min/kg
[1]; [8]
  A0: 247990 and 306059 and 255904 and 290852
  AUMC × 10^- 6: 789.510 and 452.925 and 637.710 and 525.828
  B0: 30144.320 and 32920.033 and 27005.306 and 31340.936
  CL: 7.063 mL/min/kg and 9.222 mL/min/kg and 8.567 mL/min/kg and 8.577 mL/min/kg
  VDSS: 0.209553 L/kg and 0.197899 L/kg and 0.232427 L/kg and 0.213466 L/kg
  t1/2a: 3.716 min and 2.645 min and 3.334 min and 2.575 min
  t1/2b: 33.236 and 23.987 and 31.782 and 26.467
[2]; With Fibrin Clots
  Stim (stimulation: specific activity with / without): 100
[2]; With Fibrin Clots, relative to t-PA
  rel (relative activity): 100%
[2]; With Fibrinogen
  Stim (stimulation: specific activity with / without): 100
[2]; With Fibrinogen, relative to t-PA
  +Fgn rel (relative activity): 100%
[2]; in the presence of fibrin
  increase of activity in the presence of fibrin: about 50 fold
[3]
  nominal half-life: about 2 minutes
[4]
  Clot lysis (relative units): 1.0 relative units
[5]
  nominal half-life: ~3.5 min
[6]; beta phase
  t1/2b: about 30 minutes
[6]; dominant alpha phase
  t1/2a: about 2.2 minutes
[6]; where Co=100
  t1/2a component: about 95%
  t1/2b component: about 5%
[7]
  kcat: 17.9 s⁻¹
